According to PMC3062207:

Legend:
[1] = biological target: YU2gp140:gpD fusion protein (HIV-1 isolate YU2 | bacteriophage T4 | bacteriophage lambda); assay: SEC
[2] = biological target: YU2gp140 (cleavage-deficient, trimeric HIV-1 Env gp140 with T4 fibritin trimerization motif) (HIV-1 isolate YU2 | bacteriophage T4); assay: SEC

Substance	stoichiometry N [1]	stoichiometry N [2]
YU2gp140:gpD fusion protein	3	
YU2gp140 (cleavage-deficient, trimeric HIV-1 Env gp140 with T4 fibritin trimerization motif)		3
